Assay [1] deals with T1, MAGE-A4 peptide-HLA-A2 complex presented on cells (human).
T1 construct: whole, on cells; Used both for T2 cells pulsed with the peptide and for tumour cell lines that present it themselves; also called MAGE-A4 positive/HLA-A2 positive cells
Description: flow cytometry on T2 cells pulsed with MAGE-A4 peptide; relative MFI = binding over peptide loading (BB7.2). The method, then:
(§1) TAP-deficient T2 cells were pulsed with HLA-A2-restricted peptides (MAGE-A4 or control peptides) and incubated with MAGE-A4 binders followed by fluorophore-labeled specific detection antibodies and analysis by flow cytometry.
(§2) Briefly, T-B hybrid T2 cells were incubated with serum-free RPMI1640 medium containing MAGE-A4 or control peptides. […] Peptide loading efficiency was verified by using the ratio between median fluorescent intensity (MFI) of HLA-A2-binding antibody BB7.2 on peptide loaded T2 cells and MFI of unloaded T2 cells (>1). T2 cells were incubated with each of the specific antibodies followed by fluorophore-labeled detection antibodies (anti-kappa light chain or anti-Flag). The cells were fixed and fluorescence was measured by flow cytometry.

Assay [2] concerns the target T2, control peptide 1 (Ctrl.1, …) displayed by HLA-A2 on T2 cells (human).
T2 construct: whole, on cells
Description: flow cytometry on T2 cells pulsed with control peptide 1; relative MFI = binding over peptide loading (BB7.2). On the procedure: as §1, §2

Assay [3] has as its target T3, control peptide 2 (Ctrl.2, …) displayed by HLA-A2 on T2 cells (human).
T3 construct: whole, on cells
The assay can be described thus: flow cytometry on T2 cells pulsed with control peptide 2; relative MFI = binding over peptide loading (BB7.2). The method, then:
as §1, §2

Assay [4] addresses T4, HLA-A2/MAGE-A4 complex (HLA-A*02:01 extracellular domain, human β2m, MAGE-A4 peptide 230-239) (human, UniProt P04439 25-299 at identity 0.94); P61769 21-119).
T4 construct: also called MAGE-A4/HLA-A2 complex; pMHC
The assay can be described thus: direct ELISA, plate coated with HLA-A2/MAGE-A4 complex, OD450 nm (top panel, 'Binding to HLA-A2/MAGE-A4', M0700-M0709). The method, then: (§3) All available hits were evaluated for their ability to bind MAGE-A4/HLA-A2 complex and a control peptide/HLA-A2 complex in a direct binding ELISA assay. […] Briefly, 96 well ELISA plates were coated with purified human MAGE-A4/HLA-A2 complex or control HLA-A2 complex. Serial dilutions of antibody molecules were added to the plate and detected by an anti-kappa light chain-HRP (Invitrogen) followed by goat anti-rabbit IgG(H+L) HRP (Southern Biotech). […] All tested molecules are rabbit-derived antibodies that are representative of antibodies identified from the nucleic acid libraries described herein.

Assay [5] addresses T4, HLA-A2/MAGE-A4 complex (HLA-A*02:01 …). The assay can be described thus: direct ELISA, plate coated with HLA-A2/MAGE-A4 complex, OD450 nm (second panel, 'Binding to HLA-A2/MAGE-A4', M0710-M0766). On the procedure: as §3
Assay [6] has as its target T2, control peptide 1 (Ctrl.1, …) displayed …. Description: flow cytometry on T2 cells pulsed with control peptide 1; relative MFI = binding over peptide loading (BB7.2); antibody concentration not given. On the procedure:
as §1, §2

Assay [7] concerns the target T3, control peptide 2 (Ctrl.2, …) displayed …. Description: flow cytometry on T2 cells pulsed with control peptide 2; relative MFI = binding over peptide loading (BB7.2); antibody concentration not given. On the procedure:
as §1, §2

Assay [8] has as its target T5, control peptide 3 (Ctrl.3, …) displayed by HLA-A2 on T2 cells (human).
T5 construct: whole, on cells
The assay can be described thus: flow cytometry on T2 cells pulsed with control peptide 3; relative MFI = binding over peptide loading (BB7.2); antibody concentration not given. On the procedure:
as §1, §2

Results on six molecules are retold here after patent US20220340894A1 (CDR LIFE, published 2022).

B1: M0709 (Fab, V domains shown)
VH: QSVKESGGRLVTPGTPLTLTCTVSGFSLSNYAMSWVRQAPGKGLEYIGIVSSGGTTYYASWAKGRFTISKTSTTVDLKITSPTTEDTATYFCAKDLYYGPTTYSAFNLWGQGTLVTVSS
VL: SELVLTQPQSVSGSLGQTVSISCKRARDNIEDYYVHWYQQHPGKTPTIVIHKDDQRPSGVPDRFSGSIDSTSNSASLTITGLLAEDEADYFCQSFDNDASPVFGGGTQLTVTG
With B1, the binding result in assay [1], in assay [2], in assay [3] and in assay [4] was “binds” in each case.

B2: M0763 (Fab, V domains shown)
VH: QSVKESGGRLVTPGTPLTLTCTVSGFSLSNYAMSWVRQAPGKGLEYIGIVSSGGTTYYASWAKGRFTISKTSTTVDLKITSPTTEDTATYFCAKDLYYGPTTYSAFNLWGQGTLVTVSS
VL: SELVLTQPASVQVNLGQTVSLTCTADTLSRSYASWYQLKPGQAPVLLIYRDTSRPSGVPDRFSGSSSGNTATLTISGAQAGDEGDYVCATSDGSGSNFQLFGGGTQLTVTG
In the case of B2, the binding result in assay [1] is recorded as “binds”; in assay [5], “binds”; in assay [6], “no binding”; in assay [7] it was “no binding”; in assay [8], “no binding”.

B3: M0705 (Fab, V domains shown)
VH: QQQLVESGGRLVTPGTPLTLTCTASGIDLNSNAMSWVRQGPGKGLEWIGDIWSGGYTDYASWAKGRFTISKTSTTVDLKMTSLTAADTATYFCARDRLAGDGVVDYDLWGQGTLVTVSS
VL: ELDMTQTPASVEVAVGGTVTIKCQASQNIYSNLAWYQQKPGQRPKLLIYGASTLASGVPSRFKGSGSGTEYTLTINGVQAADAATYYCQQGFSSSNVDNVFGGGTEVVVKR
As to B3, the binding result in assay [4] is “binds”.

B4: M0707 (Fab, V domains shown)
VH: QQQLEESGGGLVTPGTPLTLTCTVSGIDLSSYAMGWVRQAPGKGLEWIGTINDGGSAFYASWVKGRFTISRTSTTVDLKITSPTAEDTATYFCAKTYGTNGDVYWGYFNLWGQGTLVTVSS
VL: ELVMTQTPASVSEPVGGTVTIKCQASQSIGSNLAWYQQKPGQPPKLLIYYESILASGVPSRFSGSGSGTEYTLTISGAQADDAATYYCQQGYSSSNILNAFGGGTEVVVKR
Take B4: the binding result in assay [4] is reported as “binds”.

B5: M0702 (Fab, V domains shown)
VH: QEQLEESGGGLVTPGTPLTLTCTASGFSLSSYAMIWVRQAPGKGLEWIGTINDGGTAFYANWVKGRFTISRTSTTVDLKMTSPTTEDTATYFCARAYGSNGDVYWGYVNLWGQGTLVTVSS
VL: ELVMTQTPASVSEPVGGTVTIKCQASQSIGSNLAWYQQKPGQPPKLLIYAAANLASGVSSRFKGSRSGTEYTLTISGVQAADAATYYCQQGYSSSNVANVFGGGTELEILR
As for B5, the “EC50 (read off the curve)” value in assay [4] was roughly 0.6 nM.

B6: M0766 (Fab, V domains shown)
VH: PEQLEESGGGLVTPGGVLTLTCTASGFSFSSYGVNWVRQAPGKGLEWIGFIFGDGTTYYANWAKGRFTISKTSTTVDLKMTSPTTEDTATYFCARDGYGGYDYIINLWGQGTLVTVSS
VL: AQVLTQTPASVSAAVGGTVSISCQSSQSVVNNNWLAWYQQKPGQPPKLLIYKASTLESGVPSRFKGSGSGTQFTLTISGVQADDAATYYCLGEFSCSSADCHAFGGGTELEILR
Consider B6, for which the binding result in assay [5] is given as “binds”.
